This note sets out measurements from IntAct's records for PubMed 24500646.

B1: DDB1- and CUL4-associated factor 8 (Homo sapiens), Q5TAQ9 (parent)
chain: MSSKGSSTDGRTDLANGSLSSSPEEMSGAEEGRETSSGIEVEASDLSLSLTGDDGGPNRTSTESRGTDTESSGEDKDSDSMEDTGHYSINDENRVHDRSEEEEEEEEEEEEEQPRRRVQRKRANRDQDSSDDERALEDWVSSETSALPRPRWQALPALRERELGSSARFVYEACGARVFVQRFRLQHGLEGHTGCVNTLHFNQRGTWLASGSDDLKVVVWDWVRRQPVLDFESGHKSNVFQAKFLPNSGDSTLAMCARDGQVRVAELSATQCCKNTKRVAQHKGASHKLALEPDSPCTFLSAGEDAVVFTIDLRQDRPASKLVVTKEKEKKVGLYTIYVNPANTHQFAVGGRDQFVRIYDQRKIDENENNGVLKKFCPHHLVNSESKANITCLVYSHDGTELLASYNDEDIYLFNSSHSDGAQYVKRYKGHRNNATVKGVNFYGPKSEFVVSGSDCGHIFLWEKSSCQIIQFMEGDKGGVVNCLEPHPHLPVLATSGLDHDVKIWAPTAEASTELTGLKDVIKKNKRERDEDSLHQTDLFDSHMLWFLMHHLRQRRHHRRWREPGVGATDADSDESPSSSDTSDEEEGPDRVQCMPS

Variants of B1 are the subject of the assay. As to conditions: with ddb1_human DDB1, Q16531.
Chain of ddb1_human DDB1, Q16531 (Q16531 whole entry): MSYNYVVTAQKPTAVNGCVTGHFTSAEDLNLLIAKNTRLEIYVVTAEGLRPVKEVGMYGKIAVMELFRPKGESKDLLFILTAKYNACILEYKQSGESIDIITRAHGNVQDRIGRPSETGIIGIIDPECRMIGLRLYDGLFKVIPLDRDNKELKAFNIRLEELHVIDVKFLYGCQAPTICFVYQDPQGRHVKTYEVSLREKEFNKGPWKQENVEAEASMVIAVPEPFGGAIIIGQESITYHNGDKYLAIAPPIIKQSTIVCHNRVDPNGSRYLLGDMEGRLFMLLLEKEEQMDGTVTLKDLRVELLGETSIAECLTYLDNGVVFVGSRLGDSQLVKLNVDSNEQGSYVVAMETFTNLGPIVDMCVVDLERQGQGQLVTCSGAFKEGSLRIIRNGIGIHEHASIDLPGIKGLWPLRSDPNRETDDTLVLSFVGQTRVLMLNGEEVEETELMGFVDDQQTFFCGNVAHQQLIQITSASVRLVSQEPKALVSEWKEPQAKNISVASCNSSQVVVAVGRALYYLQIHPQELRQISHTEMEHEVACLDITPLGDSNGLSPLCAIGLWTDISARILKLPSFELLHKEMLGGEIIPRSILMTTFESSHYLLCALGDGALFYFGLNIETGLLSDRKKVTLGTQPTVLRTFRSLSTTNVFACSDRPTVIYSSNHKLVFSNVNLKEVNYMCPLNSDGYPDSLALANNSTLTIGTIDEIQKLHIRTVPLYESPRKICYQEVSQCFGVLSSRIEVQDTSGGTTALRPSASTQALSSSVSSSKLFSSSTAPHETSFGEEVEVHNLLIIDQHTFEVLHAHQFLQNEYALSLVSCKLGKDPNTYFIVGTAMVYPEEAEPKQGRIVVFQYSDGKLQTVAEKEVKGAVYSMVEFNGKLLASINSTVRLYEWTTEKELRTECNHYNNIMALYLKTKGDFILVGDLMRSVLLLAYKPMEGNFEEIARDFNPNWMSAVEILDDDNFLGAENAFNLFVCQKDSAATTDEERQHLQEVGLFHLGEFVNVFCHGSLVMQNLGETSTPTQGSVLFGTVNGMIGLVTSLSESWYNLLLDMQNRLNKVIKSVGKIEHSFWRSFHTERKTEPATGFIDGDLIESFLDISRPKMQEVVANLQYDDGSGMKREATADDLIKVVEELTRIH
Turning to R314H, the “effect of a mutation on the interaction” value is on record as “decreasing interaction strength”.
Under R317C stands “decreasing interaction strength”.
